# Laboratory results published in the DeepSol protein solubility set.
# Assay: soluble on expression in E. coli; label from the status in PepcDB or PDB records
row,Sequence,soluble on expression in E. coli
1,TWCPGCGNFAILKAFERASRRVIEEGFDIAVSSGIGCHGKISDYLSLPGFHVIHGRVPPFLTGLKLANPNLVVVGFSGDGDGLNEGVEHLVHAARRNTDITIILHNNGVFGLTTGQVTATSPRGRKSRSTPRGNPEYPLNPCHLMLVSGATFVARVFAGEQERLSEVFYNAMKHKGFSFVEVMQPCVSFNNFWEMRK,not soluble
2,TWILTADSPSLLGTVDVVTRYLFEQRCYVTEHHSFDDRLAQRFFIRVEFRAGDGFDEASFRAGLAERVAPFGMRTELTAPGYRSQVAIMVSKADHCLNDLLYRQRIGQLPMDVVAVISNHPDLEPLARWHGIPYHHFPLDPNDKPAQEARVWQVLEESGAELVILARYMQVLSPELCRRLDGWAINIHHSLLPGFKGAKPYHQAYQKGVKLVGATAHYINNDLDEGPIIAQGVETVDHAHYPEDLIAKGRDIECLTLARAVGYHIERRVFLNANRTVVL,not soluble
3,VAAAPRSPEDRRAQILDVAVRLLETVPFDDLSMDQVAAEAGVSPPLLFHYFKNKQGFRNAVLEASASELQRRMTPDAALPVSGQLRAGVETFADAVIEHPTIYLAVMRMAGSGDERMRQIYRGMRRTFTRWIGASLAEFGVPTTPALEAAISGWQAFMEEIVLSWLDEPTMDRTDMIDLCERAFYHLLPAAGVDVDALDVTR,soluble
4,VAWFTDEEGGRGRIEAGQLADLVVPDKDFFSCPEDDISFLVSELTMVGGRIVYAAGGFAALDDNPLPPAMPDWSPARTFKGYAAWGDPDGAGRHSLQRRAVAACGCANACGLHGHQHARAWGTALPVSDAKGFFGALGCSCWA,not soluble
5,VDIYASMTPAKDVGGDFYDFFQIDDERIGLVIADVSGKGVPASLFMAVSRTLLRATALRGVSSAECLTYANKLLCKESLDSMFVTVFYGIYHYKTGMMDYTNAGHNPPYLLRGGRTVECLPVASNFVVGVFDDIEFESNTLTFGIGDTLLLYTDGVTEAFNDKREQFSESNLQDILASMHESSSAKEVVTSVLQSVKTFSGDYPQSDDITLLSLQRIK,not soluble
6,VDLGGVRRRISLMARQHGPTAQRHVASPMTVDIARLGRRPGAMFELHDTVHSPARIGLELIAIDQGALLDLDLRVESVSEGVLVTGTVAAPTVGECARCLSPVRGRVQVALTELFAYPDSATDETTEEDEVGRVVDETIDLEQPIIDAVGLELPFSPVCRPDCPGLCPQCGVPLASEPGHRHEQIDPRWAKLVEMLGPESDTLRGER,not soluble
7,VERAQDGLYTIDERGVIDFCNDSFAATLGYEPGKLCGTHILEVLAPGEFPKGQAAVEELLEAPDQESTTVDLTFRRKDGAERELSFNHTLTHDEAGNYNGVIGVARDVT,not soluble
8,VFGYVTEDGDTALHLAVIHQHEPFLDFLLGFSAGHEYLDLQNDLGQTALHLAAILGEASTVEKLYAAGAGVLVAERGGHTALHLACRVRAHTCACVLLQPRPSHPRDASDTYLTQSQDCTPDTSHAPAAVDSQPNPENEEEPRDEDWRLQLEAENYDGHTPLHVAVIHKDAEMVRLLRDAGADLNKPEPTCGRTPLHLAVEAQAASVLELLLKAGADPTARMYGGRTPLGSALLRPNPILARLLRAHGAPEPEDGGDKLSPCEEEGEDEDSDNRDEGDEYDD,soluble
9,VGKPKMDVDLLQVDADLKKEIFDAYYNTMKTAVMTEEKLAREVEIDKVKDTVKEVYAEKFSEHEEEAQLLKEVKQIAEDLEKDVVRELITIDKIRPDGRKLDEIRH,not soluble
10,VGVKPVGSDPDFQPELSGAGSRLAVVKFTMRGCGPCLRIAPAFSSMSNKYPQAVFLEVDVHQCQGTAATNNISATPTFQFFRNKVRIDQYQGADAVGLEEKIKQHLE,soluble
11,VIIGLHNPKSPTNVGAVMRAAGCYNATQVRYNGTRYARAVKFQTDTQNSHERIGLVEMDDLTAGLDSEVKIVCVELAVGATALPHFTHPEQAIYLFGPEDGSLPQEVVDQAHYVVYVPTHGCMNLAATVNVVLYDRLAKSL,not soluble
12,VILIIVAYLVGILIRKRNDSRIAQLEERKQKLFDLPINEEIEEVKNLHLIGQSQTTFREWNQKWIDISTNSFADIENHIFEAENMNDNFHFFKASAEINNIESQLDLVEEDIKSIREALSRLKEQEEKNSARVKHALDLYEELQNSIEGNSDNFGSTLDEITKQLKNIESEFAEFVTLNSSGDPVEASSILDRAEEHTIALGQITEKIPAIVAKLEDDFPDQLDDLESGYRKLIEQNYHFPEKNIERHFQEIREAIRSNSSELVSLDLDRAEEKNADIQEKIDNLYSIFEREIASYKVVMRQKKILPDYLKHAKENNKKLQEELERLMLTYIFDETYEADVRSFTSDISSVETAVLPTLENFDNQVKPFSELEKIFEKSLNTLSAVENGQVEVFENLRAIEKNEAKARDELDVYIDKLHVIKRYMEKRNLPGIPESFLSVFFSTSAQIEALMDELSRGRINIDAVMRLTKTSKNAIEHLEETAYLVVQNATLTEQLLQYSNRYRSFEPAVQSSFEHALKLFEVDHDYDASLEEISYALETVEPGVTDRFVSSYEK,not soluble
13,VIRIGTRGSLLATTQAATVRDALIAGGHSAELVTISTEGDRSMAPIASLGVGVFTTALREAMEAGLVDAAVHSYKDLPTAADPRFTVAAIPPRNDPRDAVVARDGLTLGELPVGSLVGTSSPRRAAQLRALGLGLEIRPLRGNLDTRLNKVSSGDLDAIVVARAGLARLGRLDDVTETLEPVQMLPAPAQGALAVECRAGDSRLVAVLAELDDADTRAAVTAERALLADLEAGCSAPVGAIAEVVESIDEDGRVFEELSLRGCVAALDGSDVIRASGIGSCGRARELGLSVAAELFELGARELMWGVRH,not soluble
14,VIRPKTLGQKHYVDAIDTNTIVFGLGPAGSGKTYLAMAKAVQALQSKQVSRIILTRPAVEAGEKLGFLPGTLNEKIDPYLRPLHDALRDMVEPEVIPKLMEAGIVEVAPLAYMRGRTLNDAFVILDEAQNTTPAQMKMFLTRLGFGSKMVVTGDITQVDLPGGQKSGLRLVRHILRGVDDVHFSELTSSDVVRHQLVGHIVDAYEDYEEREARELKRKRQETRP,soluble
15,VKMIFIFIDGFGIGKEDASVNPLANPELPNINYILNKAGAIPTDACLDVPGLPQSATGQTTIFTGQNASKVLSRHLHGQPTITLKKMIIENNLFKELIKRGFSVTNSNVYRTPYIEKIKDPKERKYRPSVTTVMTLSCGLNLRTVEEYITGDGVYHDIIGEILKNEGYVEELITPREAAQRLYSLSRKYDFTLFEYFVTDILGHKMEMEEAVEKLKILDAFLGELLNLYNEDEDIIFITSDHGNIEDLTVNTHTFNKVPTVILGKIPENVEIEINSLTDIMPTILKIFDAKGEL,soluble
16,VKTGLYSLLGLIMRSALIDNFIESLNRSKYFHVVCSDPKPICNFIEKNLVRGATIVNAKGSFTGDNKYIILTVLSPSQAVKLRNFIKENSPGAFLLISNTSEIIGKGFHSV,not soluble
17,VKVRYENDKYLIPFASLDANQRMEFDLKDPQGKVILLAGKKLTSRKIKELKENHLEWVEYPMDILLNRHLAEPVMVGKEVLLDMLTQLDKNKLEKIHDLG,not soluble
18,VNQQQLQQLMDMGFTREHAMEALLNTSTMEQATEYLLTHP,soluble
19,VNSHCSHTFITDNRSPRARRGHAMSTLHKVKAYFGMAPMEDYDDEYYDDRAPSRGYARPRFDDDYGRYDGRDYDDARSDSRGDLRGEPADYPPPGYRGGYADEPRFRPREFDRAEMTRPRFGSWLRNSTRGALAMDPRRMAMMFEDGHPLSKITTLRPKDYSEARTIGERFRDGSPVIMDLVSMDNADAKRLVDFAAGLAFALRGSFDKVATKVFLLSPADVDVSPEERRRIAETGFYAYQ,not soluble
20,VPLPVPDFTASPMTISVGESVQFQDQTTNNPTNWEWTFEGGQPAMSTEQNPLVSYSHPGQYDVTLKVWNASGSNTITKEKFITVNAVMPVAEFVGTPTEIEEGQTVSFQNQSTNATNYVWIFDGGTPATSEDENPTVLYSKAGQYDVTLKAISASGETVKTKEKYITVKKAPVPA,not soluble
